Experiments:
Experiment in all cases: cell-based or functional assay
[1] = molecular target: CCR1 expressed on HOS-CD4 cells (UniProt P32246)
[2] = molecular target: CCR3 expressed on HOS-CD4 cells (UniProt P51677)
[3] = molecular target: CCR4 expressed on HOS-CD4 cells (UniProt P51679)
[4] = molecular target: CCR5 expressed on HOS-CD4 cells (UniProt P51681)
[5] = molecular target: CXCR4 expressed on HOS-CD4 cells (UniProt P61073)
Chain of UniProt P61073 (P61073 whole entry): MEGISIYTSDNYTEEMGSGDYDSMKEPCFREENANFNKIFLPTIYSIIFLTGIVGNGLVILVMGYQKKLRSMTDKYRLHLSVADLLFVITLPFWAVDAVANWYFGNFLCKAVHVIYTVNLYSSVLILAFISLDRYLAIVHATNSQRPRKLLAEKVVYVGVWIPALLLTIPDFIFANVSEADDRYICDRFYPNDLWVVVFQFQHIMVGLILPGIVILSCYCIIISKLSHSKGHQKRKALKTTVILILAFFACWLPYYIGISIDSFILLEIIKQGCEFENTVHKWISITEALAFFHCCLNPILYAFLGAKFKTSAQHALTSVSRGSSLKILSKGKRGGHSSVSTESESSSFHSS

Chain of UniProt P51677 (P51677 whole entry): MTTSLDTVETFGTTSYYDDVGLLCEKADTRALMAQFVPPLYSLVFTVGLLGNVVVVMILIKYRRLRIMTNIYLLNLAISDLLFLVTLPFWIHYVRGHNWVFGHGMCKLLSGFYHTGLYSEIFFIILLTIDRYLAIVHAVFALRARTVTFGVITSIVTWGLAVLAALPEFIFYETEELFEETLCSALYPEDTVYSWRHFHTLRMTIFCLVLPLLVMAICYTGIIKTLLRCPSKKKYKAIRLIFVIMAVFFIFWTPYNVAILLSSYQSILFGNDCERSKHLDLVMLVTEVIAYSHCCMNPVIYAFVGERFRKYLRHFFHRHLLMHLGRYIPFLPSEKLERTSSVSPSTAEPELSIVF
Chain of UniProt P51681 (P51681 whole entry): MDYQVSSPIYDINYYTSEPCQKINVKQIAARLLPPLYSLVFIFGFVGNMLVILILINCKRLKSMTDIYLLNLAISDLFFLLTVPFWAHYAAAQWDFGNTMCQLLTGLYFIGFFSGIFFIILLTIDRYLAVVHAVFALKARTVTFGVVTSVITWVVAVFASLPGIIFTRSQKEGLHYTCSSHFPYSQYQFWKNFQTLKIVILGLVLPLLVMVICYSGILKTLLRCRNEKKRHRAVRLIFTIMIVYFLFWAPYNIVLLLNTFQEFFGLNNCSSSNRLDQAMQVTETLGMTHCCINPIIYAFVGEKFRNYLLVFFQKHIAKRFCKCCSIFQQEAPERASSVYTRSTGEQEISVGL
Chain of UniProt P32246 (P32246 whole entry): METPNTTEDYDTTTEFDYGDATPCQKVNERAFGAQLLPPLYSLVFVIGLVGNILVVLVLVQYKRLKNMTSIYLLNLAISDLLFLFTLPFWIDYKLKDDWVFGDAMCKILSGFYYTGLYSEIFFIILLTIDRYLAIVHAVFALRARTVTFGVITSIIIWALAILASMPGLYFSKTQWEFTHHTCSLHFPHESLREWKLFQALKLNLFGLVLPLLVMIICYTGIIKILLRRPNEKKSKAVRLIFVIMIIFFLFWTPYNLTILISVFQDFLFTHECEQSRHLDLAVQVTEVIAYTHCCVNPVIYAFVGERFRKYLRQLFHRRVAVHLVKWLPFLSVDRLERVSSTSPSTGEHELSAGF
Chain of UniProt P51679 (P51679 whole entry): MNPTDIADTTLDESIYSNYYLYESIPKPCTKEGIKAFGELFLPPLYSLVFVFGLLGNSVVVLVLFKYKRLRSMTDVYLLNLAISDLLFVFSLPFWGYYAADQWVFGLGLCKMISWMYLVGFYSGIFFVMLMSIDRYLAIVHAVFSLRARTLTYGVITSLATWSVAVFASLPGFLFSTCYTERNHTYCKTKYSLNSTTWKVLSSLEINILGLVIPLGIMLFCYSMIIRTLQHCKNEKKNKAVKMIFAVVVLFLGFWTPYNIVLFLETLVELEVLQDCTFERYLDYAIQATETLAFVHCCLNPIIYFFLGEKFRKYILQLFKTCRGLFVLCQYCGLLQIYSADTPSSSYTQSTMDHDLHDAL

| Substance | Infectivity Titer in HOS-CD4 Cells Expressing CCR1 [1] | Infectivity Titer in HOS-CD4 Cells Expressing CCR3 [2] | Infectivity Titer in HOS-CD4 Cells Expressing CCR4 [3] | Infectivity Titer in HOS-CD4 Cells Expressing CCR5 [4] | Infectivity Titer in HOS-CD4 Cells Expressing CXCR4 [5] |
| --- | --- | --- | --- | --- | --- |
| HIV-1 AD8 envelope, expressed on pseudovirus | < 4 titer (1:n) | < 4 titer (1:n) | < 4 titer (1:n) | 256 titer (1:n) | < 4 titer (1:n) |
| HIV-1 NL4-3 envelope, expressed on pseudovirus | < 4 titer (1:n) | < 4 titer (1:n) | < 4 titer (1:n) | 32 titer (1:n) | > 256 titer (1:n) |
